Laboratory results as given in publication PMC10146092, “Highly Sensitive β-Lactoglobulin Fluorescent Aptamer Biosensors Based on Tungsten Disulfide Nanosheets and DNase I-Assisted Signal Amplification”.

T1: beta-lactoglobulin (β-Lg) (Bos taurus (cow's milk)?, UniProt P02754 17-178)
T1 sequence: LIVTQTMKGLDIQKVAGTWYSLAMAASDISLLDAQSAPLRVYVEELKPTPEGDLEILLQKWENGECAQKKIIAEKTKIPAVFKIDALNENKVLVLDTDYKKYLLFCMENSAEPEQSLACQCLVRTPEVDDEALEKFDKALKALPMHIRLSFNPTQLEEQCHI

B1: β-Lg aptamer (ssDNA)
DNA: CGACGATCGGACCGCAGTACCCACAGCCCCAACATCATGCCCATCCGTGTGTG
B2: negative control DNA sequence (ssDNA)
DNA: CTAAGTCTGAAACATTACAGCTTGCTACACGAGAAGAGCCGCACGAGAACCCT

Key:
[1] = target: T1, beta-lactoglobulin (β-Lg); assay: fluorescence recovery on WS2 nanosheets (FRET quenching); no DNase I; WS2 nanosheets; LOD 35 ng/mL; 200 nM FAM-aptamer, 750 ug/mL WS2 (10 min, room temperature), then β-Lg with 0.04 U/uL DNase I, 40 min at 37 °C; ex 490/em 518 nm; buffer, salt and pH not given in the material; details: protein: commercial; chain copies: 2; label: 5'-FAM
ovalbumin = ovalbumin (UniProt P01012 2-386); assay: fluorescence recovery on WS2 nanosheets; 10 ug/mL protein; no significant recovery; 200 nM FAM-aptamer, 750 ug/mL WS2 (10 min, room temperature), then β-Lg with 0.04 U/uL DNase I, 40 min at 37 °C; ex 490/em 518 nm; buffer, salt and pH not given in the material; details: protein: commercial; label: 5'-FAM
[2] = target: T1, beta-lactoglobulin (β-Lg); assay: fluorescence recovery on WS2 nanosheets, DNase I amplified; DNase I; β-Lg 0.1-100 ug/mL; little fluorescence change, independent of β-Lg; 200 nM FAM-aptamer, 750 ug/mL WS2 (10 min, room temperature), then β-Lg with 0.04 U/uL DNase I, 40 min at 37 °C; ex 490/em 518 nm; buffer, salt and pH not given in the material; details: protein: commercial; chain copies: 2; label: 5'-FAM

Chain of ovalbumin (P01012 2-386): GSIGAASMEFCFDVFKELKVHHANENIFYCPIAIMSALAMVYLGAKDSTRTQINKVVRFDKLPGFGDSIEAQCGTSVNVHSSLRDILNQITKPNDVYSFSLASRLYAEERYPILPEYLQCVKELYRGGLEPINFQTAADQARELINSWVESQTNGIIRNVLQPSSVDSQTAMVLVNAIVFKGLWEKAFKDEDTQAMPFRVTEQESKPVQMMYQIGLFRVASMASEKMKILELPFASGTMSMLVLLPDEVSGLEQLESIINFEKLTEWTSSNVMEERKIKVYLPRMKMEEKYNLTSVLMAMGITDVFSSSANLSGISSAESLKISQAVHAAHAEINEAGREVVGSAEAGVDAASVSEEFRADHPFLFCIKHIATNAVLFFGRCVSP

Binder	binding result [1]	binding result (ovalbumin)	binding result [2]
B1	binds	no binding	
B2			no binding
